{
  "source": "paper PMC11843870",
  "target": "Xn-XptA2 wt (A subunit, TcA, of the ABC toxin complex of Xenorhabdus nematophilus) (Xenorhabdus nematophilus)",
  "assay": "cryo-EM structure; single particle analysis, 1.5 mg/mL protein in 10 mM Tris, 100 mM NaCl, pH 7.5; C5 symmetry",
  "data": [
    {"substance": "Xn-XptA2 wt (A subunit, TcA, of the ABC toxin complex of Xenorhabdus nematophilus) (natural protein)", "values": [
      {"measurement": "stoichiometry N", "value": 5}
    ]}
  ]
}
